Results: patent publication US20230212587A1, “Mutant Hydroxyphenylpyruvate Dioxygenase Polypeptide, Encoding Gene Thereof and Use Therefor” (Beijing Dabeinong Biotechnology Co., Ltd., priority 2019, published 2023)

Test system: Arabidopsis thaliana T1 plants
Assay: Topramezone tolerance of transgenic Arabidopsis thaliana T1 plants (pesticide damage grade by bleached leaf area, score, resistance evaluation)
Assay type: in vivo
Design: score: scale not given here
Settings: for Classification and statistics of the grade of pesticide damage Grade 0 / Classification and statistics of the grade of pesticide damage Grade 1 / Classification and statistics of the grade of pesticide damage Grade 2 / Classification and statistics of the grade of pesticide damage Grade 3 / Classification and statistics of pesticide damage grade Grade 0 / Classification and statistics of pesticide damage grade Grade 1 / Classification and statistics of pesticide damage grade Grade 2 / Classification and statistics of pesticide damage grade Grade 3: number of plants (of 16) in this grade; for Classification and statistics of the grade of pesticide damage Grade 0 / Classification and statistics of the grade of pesticide damage Grade 1 / Classification and statistics of the grade of pesticide damage Grade 2 / Classification and statistics of the grade of pesticide damage Grade 3 / Scores / Resistance evaluation / Classification and statistics of pesticide damage grade Grade 0 / Classification and statistics of pesticide damage grade Grade 1 / Classification and statistics of pesticide damage grade Grade 2 / Classification and statistics of pesticide damage grade Grade 3: 7 DAT
Text: The Arabidopsisthaliana T1 plants into which the AsHPPDm-F372A-02 nucleotide sequence was introduced, Arabidopsis thaliana T1 plants into which the AsHPPD-02 nucleotide sequence was introduced and wild-type Arabidopsisthaliana plants (18 days after sowing) were sprayed with topramezone at four different concentrations, i.e., 25 g ai/ha (one-fold field concentration, 1×), 50 g ai/ha (two-fold field concentration, 2×), 100 g ai/ha (four-fold field concentration, 4×) and 0 g ai/ha (water, 0×) to determine the tolerance of Arabidopsisthaliana to the herbicide. The degree of damage caused by the herbicide was measured for each plant according to the proportion of bleached leaf area (the proportion of bleached leaf area=bleached leaf area/total leaf area×100%) 7 days after spraying (7 DAT): the case where there is basically no bleached phenotype is defined as grade 0, the case where the proportion of bleached leaf area is less than 50% is defined as grade 1,the case where the proportion of bleached leaf area is more than 50% is defined as grade 2, and the case where the proportion of bleached leaf area is 100% grade is defined as grade 3.
(§1) According to the method as described above in point 6 of Example 1, the aforementioned Arabidopsisthaliana T1 plants and wild-type Arabidopsisthaliana plants (18 days after sowing) were sprayed with topramezone at three different concentrations respectively, i.e., 25 g ai/ha (one-fold field concentration, 1×), 100 g ai/ha (four-fold field concentration, 4×) and 0 g ai/ha(water, 0×) to detect the tolerance of Arabidopsisthaliana to the herbicide.
as §1, with “1x),” for “1×),”, “4x)” for “4×)”, “ai/ha (water, 0x)” for “ai/ha(water, 0×)”
According to the method as described above in point 6 of Example 1, the above-mentioned Arabidopsisthaliana T1 plants, Arabidopsisthaliana T1 plants into which the AsHPPD-02 nucleotide sequence was introduced, Arabidopsisthaliana T1 plants into which the PfHPPD-02 nucleotide sequence was introduced, and wild-type Arabidopsisthaliana plants (18 days after sowing) were sprayed with topramezone at four different concentrations respectively, that is, 25 g ai/ha (one-fold field concentration, 1x), 50 g ai/ha (two-fold field concentration, 2x), 100 g ai/ha (four-fold field concentration, 4x) and 0 g ai/ha (water, Ox) to detect the herbicide tolerance of Arabidopsisthaliana.
According to the method as described in point 6 of Example 1, the above-mentioned Arabidopsisthaliana T1 plants and wild-type Arabidopsisthaliana plants (18 days after sowing) were sprayed with topramezone at two different concentrations respectively, that is, 25 g ai/ha (one-fold field concentration, 1x) and 100 g ai/ha (four-fold field concentration, 4x) to detect the herbicide tolerance of Arabidopsisthaliana,. […]

[1] = non-372 position mutants, number of plants (of 20) in this grade, topramezone 25 g ai/ha (1x)
[2] = non-372 position mutants, number of plants (of 20) in this grade, topramezone 100 g ai/ha (4x)
[3] = topramezone 25 g ai/ha (1x), HPPD from Avena sativa source
[4] = topramezone 25 g ai/ha (1x), number of plants, HPPD from Avena sativa source
[5] = topramezone 25 g ai/ha, mutation combination, Table 8
[6] = topramezone 50 g ai/ha (2x), HPPD from Avena sativa source
[7] = topramezone 50 g ai/ha (2x), number of plants, HPPD from Avena sativa source
[8] = topramezone 100 g ai/ha (4x), HPPD from Avena sativa source
[9] = topramezone 100 g ai/ha (4x), number of plants, HPPD from Avena sativa source
[10] = topramezone 100 g ai/ha, mutation combination, Table 8
[11] = HPPDs from different species, topramezone 25 g ai/ha (1x)
[12] = HPPDs from different species, topramezone 100 g ai/ha (4x)

B1: AsHPPD-02: Avena sativa native HPPD, SEQ ID NO: 1; gene SEQ ID NO: 3 (protein, listed as Avena sativa)
chain: MPPTPATATGAAAAAVTPEHAARSFPRVVRVNPRSDRFPVLSFHHVELWCADAASAAGRFSFALGAPLAARSDLSTGNSAHASLLLRSGALAFLFTAPYAPPPQEAATAAATASIPSFSADAARTFAAAHGLAVRSVGVRVADAAEAFRVSVAGGARPAFAPADLGHGFGLAEVELYGDVVLRFVSYPDETDLPFLPGFERVSSPGAVDYGLTRFDHVVGNVPEMAPVIDYMKGFLGFHEFAEFTAEDVGTTESGLNSVVLANNSEAVLLPLNEPVHGTKRRSQIQTYLEYHGGPGVQHIALASNDVLRTLREMRARTPMGGFEFMAPPQAKYYEGVRRIAGDVLSEEQIKECQELGVLVDRDDQGVLLQIFTKPVGDRPTFFLEMIQRIGCMEKDEVGQEYQKGGCGGFGKGNFSELFKSIEDYEKSLEVKQSVVAQKS
modifications: AsHPPD Amido Acid Sequence
In the case of B1, the “tolerance to topramezone, in words” value (Arabidopsis thaliana T1 plants sprayed with topramezone) is reported as “no or relatively low tolerance”, the “Grade 0” value [1] is reported as 0 and the “Grade 1” value [1] is reported as 5. For the same molecule, the “Grade 2” value [1] was 13, the “Grade 3” value [1] was 2 and the “Grade 0” value [2] was 0. The “Grade 1” value [2] was 0, the “Grade 2” value [2] was 4 and the “Grade 3” value [2] was 16. For the same molecule, the score (non-372 position mutants, score for pesticide damage 0-100, topramezone 25 g ai/ha (1x)) was 62, the score (non-372 position mutants, score for pesticide damage 0-100, topramezone 100 g ai/ha (4x)) was 93 and the “Resistance Grade” value (non-372 position mutants, topramezone 25 g ai/ha (1x)) was “poorly resistant (poorly resistant plants (scores 34-67))”. The “Resistance Grade” value (non-372 position mutants, topramezone 100 g ai/ha (4x)) was “non-resistant (non-resistant plants (scores 68-100))”, the “Classification and statistics of the grade of pesticide damage Grade 0” value (topramezone 25 g ai/ha (1x)) was 0 and the “Classification and statistics of the grade of pesticide damage Grade 1” value (topramezone 25 g ai/ha (1x)) was 4. The “Classification and statistics of the grade of pesticide damage Grade 2” value (topramezone 25 g ai/ha (1x)) was 12, the “Classification and statistics of the grade of pesticide damage Grade 3” value (topramezone 25 g ai/ha (1x)) was 0 and the “Classification and statistics of the grade of pesticide damage Grade 0” value (topramezone 50 g ai/ha (2x)) was 0. For the same molecule, the “Classification and statistics of the grade of pesticide damage Grade 1” value (topramezone 50 g ai/ha (2x)) was 0, the “Classification and statistics of the grade of pesticide damage Grade 2” value (topramezone 50 g ai/ha (2x)) was 6 and the “Classification and statistics of the grade of pesticide damage Grade 3” value (topramezone 50 g ai/ha (2x)) was 10. The “Classification and statistics of the grade of pesticide damage Grade 0” value (topramezone 100 g ai/ha (4x)) was 0, the “Classification and statistics of the grade of pesticide damage Grade 1” value (topramezone 100 g ai/ha (4x)) was 0 and the “Classification and statistics of the grade of pesticide damage Grade 2” value (topramezone 100 g ai/ha (4x)) was 4. The “Classification and statistics of the grade of pesticide damage Grade 3” value (topramezone 100 g ai/ha (4x)) was 12, the “tolerance to topramezone, in words” value (saturation mutation of HPPD from Avena sativa source (label F372X = AsHPPDm-F372X), topramezone 25, 50, 100 g ai/ha) was “no or low tolerance” and the Scores (score for pesticide damage 0-100, topramezone 25 g ai/ha (1x)) was 58. For the same molecule, the Scores (score for pesticide damage 0-100, topramezone 50 g ai/ha (2x)) was 88, the Scores (score for pesticide damage 0-100, topramezone 100 g ai/ha (4x)) was 92 and the Resistance evaluation (topramezone 25 g ai/ha (1x)) was “poorly resistant (poorly resistant plants (scores 34-67))”. The “Resistance Grade” value [3] was “Poorly resistant”, the score [3] was 57 and the “Grade 0” value [4] was 2. The “Grade 1” value [4] was 2, the “Grade 2” value [4] was 16 and the “Grade 3” value [4] was 0. The “Grade 0 (number of plants)” value [5] was 2, the “Grade 1 (number of plants)” value [5] was 2 and the “Grade 2 (number of plants)” value [5] was 16. The “Grade 3 (number of plants)” value [5] was 0, the “Resistance Grade” value [5] was “Poorly resistant” and the score [5] was 57. The Resistance evaluation (topramezone 50 g ai/ha (2x)) was “non-resistant (non-resistant plants (scores 68-100))”, the “Resistance Grade” value [6] was “Non-resistant” and the score [6] was 87. For the same molecule, the “Grade 0” value [7] was 0, the “Grade 1” value [7] was 2 and the “Grade 2” value [7] was 4. For the same molecule, the “Grade 3” value [7] was 14, the Resistance evaluation (topramezone 100 g ai/ha (4x)) was “non-resistant (non-resistant plants (scores 68-100))” and the “Resistance Grade” value [8] was “Non-resistant”. The score [8] was 93, the “Grade 0” value [9] was 0 and the “Grade 1” value [9] was 0. For the same molecule, the “Grade 2” value [9] was 4, the “Grade 3” value [9] was 16 and the “Grade 0 (number of plants)” value [10] was 0. The “Grade 1 (number of plants)” value [10] was 0, the “Grade 2 (number of plants)” value [10] was 4 and the “Grade 3 (number of plants)” value [10] was 16. The “Resistance Grade” value [10] was “Non-resistant” and the score [10] was 93.

B2: PfHPPD-02: native Pseudomonas fluorescens HPPD, SEQ ID NO: 27 (protein, listed as Pseudomonas fluorescens)
chain: MADLYENPMGLMGFEFIEFASPTPGTLEPIFEIMGFTKVATHRSKNVHLYRQGEINLILNNEPNSIASYFAAEHGPSVCGMAFRVKDSQKAYNRALELGAQPIHIDTGPMELNLPAIKGIGGAPLYLIDRFGEGSSIYDIDFVYLEGVERNPVGAGLKVIDHLTHNVYRGRMVYWANFYEKLFNFREARYFDIKGEYTGLTSKAMSAPDGMIRIPLNEESSKGAGQIEEFLMQFNGEGIQHVAFLTDDLVKTWDALKKIGMRFMTAPPDTYYEMLEGRLPDHGEPVDQLQARGILLDGSSVEGDKRLLLQIFSETLMGPVFFEFIQRKGDDGFGEGNFKALFESIERDQVRRGVLTAD
modifications: PfHPPD Amino Acid Sequence
For B2, the “Classification and statistics of pesticide damage grade Grade 0” value [11] was 0, the “Classification and statistics of pesticide damage grade Grade 1” value [11] was 0 and the “Classification and statistics of pesticide damage grade Grade 2” value [11] was 0. The “Classification and statistics of pesticide damage grade Grade 3” value [11] was 16, the “Classification and statistics of pesticide damage grade Grade 0” value [12] was 0 and the “Classification and statistics of pesticide damage grade Grade 1” value [12] was 0. The “Classification and statistics of pesticide damage grade Grade 2” value [12] was 0, the “Classification and statistics of pesticide damage grade Grade 3” value [12] was 16 and the Scores (HPPDs from different species, score for pesticide damage 0-100, topramezone 25 g ai/ha (1x)) was 100. The Scores (HPPDs from different species, score for pesticide damage 0-100, topramezone 100 g ai/ha (4x)) was 100, the Resistance evaluation [11] was “non-resistant (non-resistant plants (scores 68-100))” and the Resistance evaluation [12] was “non-resistant (non-resistant plants (scores 68-100))”. For the same molecule, the “tolerance to topramezone, in words” value (saturation mutation of HPPD from Pseudomonas fluorescens source (label F372X = PfHPPDm-F372X), topramezone 25, 50, 100 g ai/ha) was “no tolerance”, the “Grade 0 (number of plants)” value [5] was 0 and the “Grade 1 (number of plants)” value [5] was 0. The “Grade 2 (number of plants)” value [5] was 0, the “Grade 3 (number of plants)” value [5] was 20 and the “Resistance Grade” value [5] was “Non-resistant”. The score [5] was 100, the “Grade 0 (number of plants)” value [10] was 0 and the “Grade 1 (number of plants)” value [10] was 0. For the same molecule, the “Grade 2 (number of plants)” value [10] was 0, the “Grade 3 (number of plants)” value [10] was 20 and the “Resistance Grade” value [10] was “Non-resistant”. For the same molecule, the score [10] was 100.
